Reference: US20170267761A1 (H LUNDBECK A S, published 2017)
Each block holds one binder with its values, some of them ahead of it.

Target: T1, Sortilin SORTECD_HIS (human, UniProt Q99523 78-755)
T1 construct: also called Sortilin-ECD-His; HIS-tagged Sortilin ECD
T1 sequence: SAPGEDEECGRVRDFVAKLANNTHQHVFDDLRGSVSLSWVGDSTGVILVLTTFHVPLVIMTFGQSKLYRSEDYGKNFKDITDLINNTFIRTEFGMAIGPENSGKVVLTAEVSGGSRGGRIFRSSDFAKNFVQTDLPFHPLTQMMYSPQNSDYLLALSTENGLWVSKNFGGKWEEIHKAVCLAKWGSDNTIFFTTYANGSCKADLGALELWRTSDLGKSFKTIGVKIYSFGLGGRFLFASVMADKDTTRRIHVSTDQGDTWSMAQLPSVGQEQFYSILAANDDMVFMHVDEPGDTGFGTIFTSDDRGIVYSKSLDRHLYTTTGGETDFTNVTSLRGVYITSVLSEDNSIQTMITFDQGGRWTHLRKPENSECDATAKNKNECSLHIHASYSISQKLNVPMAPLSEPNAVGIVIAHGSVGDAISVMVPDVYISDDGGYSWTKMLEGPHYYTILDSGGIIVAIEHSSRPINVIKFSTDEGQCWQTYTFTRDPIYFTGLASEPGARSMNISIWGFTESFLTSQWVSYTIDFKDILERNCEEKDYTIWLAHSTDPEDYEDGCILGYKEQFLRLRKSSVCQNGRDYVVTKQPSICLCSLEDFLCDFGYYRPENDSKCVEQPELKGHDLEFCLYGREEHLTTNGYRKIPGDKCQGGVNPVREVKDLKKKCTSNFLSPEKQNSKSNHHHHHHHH
Assay: HTRF, displacement of PGRN from His-tagged Sortilin ECD
Protocol: Dose-response evaluation of antibodies was performed with ten concentrations covering 50 pM to 1 μM in a 3-fold dilution curve. The half-maximal inhibitory concentration (IC50) values were calculated by non-linear regression using sigmoidal concentration response (variable slope) in XLfit 4 (IDBS, UK).
Experiments were performed in assay buffer (50 mM Phosphate, pH 7.0, 0.1% BSA) in a total volume of 20 μl in a Greiner 384 well, white, low volume microtiter plate, (784075, Greiner).

% inh highest conc: 75%
B1: 1320 (antibody, V domains shown)
VH: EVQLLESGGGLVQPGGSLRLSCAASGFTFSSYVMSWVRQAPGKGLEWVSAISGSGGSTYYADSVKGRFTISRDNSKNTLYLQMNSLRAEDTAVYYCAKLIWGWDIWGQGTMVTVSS
VL: EIVLTQSPATLSLSPGERATLSCRASQSVSSYLAWYQQRPGQAPRLLIYDASNRATGIPARFSGSGSGTDFTLSISSLEPEDFAVYYCQQRTNWSITFGQGTRLEIK
notes: also called Antibody 1320; Ab 1320

% inh highest conc: 98%
B2: 1289 (antibody, V domains shown)
VH: EVQLLESGGGLVQPGGSLRLSCAASGFTFSSFAMSWVRQAPGKGLEWVSAISGSGGSTYYADSVKGRFTISRDNSKNTLSLQMNSLRAEDTAVYYCATPITLVRGVGAFDIWGQGTMVTVSS
VL: not shown
notes: the sheets print 1289 only, the text names its one 1289 antibody 1289-02; also called IgG1-6003-1289; Antibody 1289-02
